Where a chain is given by its changes, count along the chain named. Values belong to the molecule of their own block, whether it stands above or below them.
Key:
[1] = target: T1, recombinant OX40 protein with a His tag (Homo sapiens, UniProt P43489); test: Binding kinetics and affinity of anti-OX40 antibodies by SPR (BIAcore T-200)
T1 construct: His tag; purchased Sino Biological 10481-H08H
T1 sequence (P43489 29-277): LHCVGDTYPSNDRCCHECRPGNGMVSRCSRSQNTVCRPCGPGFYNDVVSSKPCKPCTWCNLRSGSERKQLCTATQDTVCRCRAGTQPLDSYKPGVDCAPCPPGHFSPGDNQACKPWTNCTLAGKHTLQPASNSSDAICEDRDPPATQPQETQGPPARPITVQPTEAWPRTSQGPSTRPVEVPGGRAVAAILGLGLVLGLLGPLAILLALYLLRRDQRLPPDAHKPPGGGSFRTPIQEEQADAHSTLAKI
Text: The anti-OX40 antibodies were characterized for their binding kinetics and affinity by SPR assays using BIAcore™ T-200 (GE Life Sciences). Briefly, anti-human IgG antibody was immobilized on an activated CM5 biosensorchip (Cat: BR100530, GE Life Sciences). An antibody with human IgG Fc region was flowed over the chip surface and captured by anti-human IgG antibody. Then a serial dilution of recombinant OX40 protein with a His tag (Cat: 10481-H08H, Sino Biological) was flowed over the chip surface and changes in surface plasmon resonance signals were analyzed to calculate the association rates (ka) and dissociation rates (kd) by using the one-to-one Langmuir binding model (BIA Evaluation Software, GE Life Sciences). The equilibrium dissociation constant (KD) was calculated as the ratio kd/ka.

EMT-6 cells = test: EMT-6 syngeneic breast cancer model in BALB/c mice; assay type: in vivo, mouse
Experimental: EMT-6 cells are of murine breast cancer origin. Female BALB/c mice were implanted intramammary with 5×10^4 EMT-6 cells per 100 μL PBS mice in the second right papilla. After inoculation, mice were randomized into 4 groups with 25 animals in each group according to inoculation order.
The mice were treated with vehicle (0.5% MC), OX86 (a murine specific anti-OX40 antibody), Compound 1 (PI3Kdelta inhibitor), and the combination of OX86 and Compound 1, respectively. OX86 was given at 0.4 mg/kg once per week (QW) by intraperitoneal (i.p.) injection, and Compound 1 was administered at 30 mg/kg twice per day (BID) by oral gavage (p.o.). Tumor volume was determined twice weekly and tumor growth inhibition was determined using the formula described in Example 14 above.

A20 cells = test: A20 syngeneic B cell lymphoma model in BALB/c mice; assay type: in vivo, mouse; conditions: Compound 1 10 mg/kg p.o.
Experimental: A20 cells are of B cell lymphoma origin. Female BALB/c mice were subcutaneously implanted with 1×10^5 A20 cells in 150 μL PBS mice in the right flank. After inoculation, mice were randomized into 4 groups with 25 animals in each group according to inoculation order. The mice were treated with vehicle (0.5% MC), OX86 (a murine specific anti-OX40 antibody), Compound 1, and the combination of OX86 and Compound 1. OX86 was given at 0.4 mg/kg once a week by intraperitoneal injection, and Compound 1 was administered at 10 mg/kg twice a day by oral gavage. Tumor volume was determined twice weekly and the TGI calculated as described above.

[2] = target: T2, interaction between OX40 and OX40 ligand (Mus musculus, UniProt P47741); conditions: reported in the scientific literature; cited from earlier work
T2 sequence (P47741 20-272): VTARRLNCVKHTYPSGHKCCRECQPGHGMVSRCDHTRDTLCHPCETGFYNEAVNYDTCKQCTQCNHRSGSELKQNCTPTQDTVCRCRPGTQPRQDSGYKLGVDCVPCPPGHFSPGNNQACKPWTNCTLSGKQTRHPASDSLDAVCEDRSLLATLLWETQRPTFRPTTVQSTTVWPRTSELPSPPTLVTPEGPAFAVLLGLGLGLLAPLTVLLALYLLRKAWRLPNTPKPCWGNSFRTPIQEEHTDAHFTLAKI
T2 sequence (P43488 1-198 partner): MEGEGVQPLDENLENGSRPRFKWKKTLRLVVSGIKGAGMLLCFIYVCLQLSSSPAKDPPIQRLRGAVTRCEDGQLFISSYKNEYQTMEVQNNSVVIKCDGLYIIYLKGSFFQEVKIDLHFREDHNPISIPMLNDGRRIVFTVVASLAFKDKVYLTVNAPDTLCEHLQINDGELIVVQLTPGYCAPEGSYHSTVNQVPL

[3] = OX86 0.4 mg/kg QW i.p., Compound 1 30 mg/kg BID p.o.

- KA ([1]; Mean): 1.41e+08 M⁻¹
- KA ([1]; Test 1): 1.22e+08 M⁻¹
- ka ([1]; Test 1): 174000 M⁻¹ s⁻¹
- kd ([1]; Test 1): 0.00143 s⁻¹
- KA ([1]; Test 2): 1.59e+08 M⁻¹
- ka ([1]; Test 2): 265000 M⁻¹ s⁻¹
- kd ([1]; Test 2): 0.00167 s⁻¹
B1: ch445: Mu445 variable domains fused to human IgG1wt/kappa constant regions (antibody, V domains shown)
VH: EVQLQQSGPELVKPGASVKMSCKASGYKFTSYIIHWVKQKPGQGLEWIGYINPYNDGTRYNEKFKGKATLTSDKSSSTAYMEYSSLTSEDSAVYYCARGYYGSSYAMDYWGQGTSVTVSS
VL: DIQMTQTTSSLSASLGDRVTISCSASQGISNYLNWYQQKPDGTIKLLIYDTSTLYSGVPSRFSGSGSGTDYFLTISNLEPEDIATYYCQQYSKLPYTFGGGTKLEKK

B2: OX86: rat anti-mouse OX40 antibody (WO2016/057667) engineered with mouse IgG2a constant regions; VH SEQ ID NO: 32, VL SEQ ID NO: 33 (antibody, V domains shown)
VH: QVQLKESGPGLVQPSQTLSLTCTVSGFSLTGYNLHWVRQPPGKGLEWMGRMRYDGDTYYNSVLKSRLSISRDTSKNQVFLKMNSLQTDDTAIYYCTRDGRGDSFDYWGQGVMVTVSS
VL: DIVMTQGALPNPVPSGESASITCRSSQSLVYKDGQTYLNWFLQRPGQSPQLLTYWMSTRASGVSDRFSGSGSGTYFTLKISRVRAEDAGVYYCQQVREYPFTFGSGTKLEIK
modifications: mouse IgG2a constant regions
- Mean Tumor Volume on Day 22 (mean ± SEM) (EMT-6 cells; [3]): 210.5 ± 43.9 mm^3
- Tumor Free Animal (EMT-6 cells; [3]): 40%
- TGI on Day 22 (EMT-6 cells; OX86 0.4 mg/kg QW×4 i.p., Compound 1 30 mg/kg BID×22 p.o.): 79%
- Mean Tumor Volume on Day 26 (mean ± SEM) (A20 cells; OX86 0.4 mg/kg QW i.p.): 53.4 ± 28.7 mm^3
- Tumor Free Animals at Day 47 (A20 cells; OX86 0.4 mg/kg QW i.p.): 80%
- TGI on Day 26 (A20 cells; OX86 0.4 mg/kg QW×4 i.p.): 93%
- Blocking of the interaction between OX40 and OX40 ligand [2]: does not block the interaction between OX40 and OX40 ligand

- KA ([1]; Mean): 5.9e+07 M⁻¹
- KA ([1]; Test 1): 5.6e+07 M⁻¹
- ka ([1]; Test 1): 156000 M⁻¹ s⁻¹
- kd ([1]; Test 1): 0.00277 s⁻¹
- KA ([1]; Test 2): 6.1e+07 M⁻¹
- ka ([1]; Test 2): 237000 M⁻¹ s⁻¹
- kd ([1]; Test 2): 0.00389 s⁻¹
B3: 445-1: humanized anti-OX40 antibody, human IgG1 wt, VH SEQ ID NO: 14, VL SEQ ID NO: 16 (antibody, V domains shown)
VH: QVQLVQSGAEVKKPGSSVKVSCKASGYKFTSYIIHWVRQAPGQGLEWMGYINPYNDGTRYNQKFQGRVTLTSDKSTSTAYMELSSLRSEDTAVYYCARGYYGSSYAMDYWGQGTTVTVSS
VL: DIQMTQSPSSLSASVGDRVTITCSASQGISNYLNWYQQKPGKAIKLLIYDTSTLYSGVPSRFSGSGSGTDYTLTISSLQPEDFATYYCQQYSKLPYTFGGGTKVEIK
modifications: human IgG1 constant regions; 445-1 VH pro; 445-1 VK pro

- KA ([1]; Mean): 7.5e+07 M⁻¹
- KA ([1]; Test 1): 7.1e+07 M⁻¹
- ka ([1]; Test 1): 276000 M⁻¹ s⁻¹
- kd ([1]; Test 1): 0.0039 s⁻¹
- KA ([1]; Test 2): 7.8e+07 M⁻¹
- ka ([1]; Test 2): 206000 M⁻¹ s⁻¹
- kd ([1]; Test 2): 0.00264 s⁻¹
B4: 445-2: humanized anti-OX40 antibody, VH SEQ ID NO: 20, VL SEQ ID NO: 22 (antibody, V domains shown)
VH: B3 VH with D56E, N61A, S72A
VL: B3 VL with T51A, Y71F
modifications: 445-2 VH pro; 445-2 VK pro
